Results taken from patent EP4813403A1, “USE OF GLP-1R/GIPR DOUBLE-TARGET AGONIST IN PREPARING ANIMAL DRUG” (Hangzhou Zhongmeihuadong Pharmaceutical Co., Ltd., priority 2023, dated 2025).

T1: human GIP receptor (human) (UniProt P48546)
T1 sequence (looked up): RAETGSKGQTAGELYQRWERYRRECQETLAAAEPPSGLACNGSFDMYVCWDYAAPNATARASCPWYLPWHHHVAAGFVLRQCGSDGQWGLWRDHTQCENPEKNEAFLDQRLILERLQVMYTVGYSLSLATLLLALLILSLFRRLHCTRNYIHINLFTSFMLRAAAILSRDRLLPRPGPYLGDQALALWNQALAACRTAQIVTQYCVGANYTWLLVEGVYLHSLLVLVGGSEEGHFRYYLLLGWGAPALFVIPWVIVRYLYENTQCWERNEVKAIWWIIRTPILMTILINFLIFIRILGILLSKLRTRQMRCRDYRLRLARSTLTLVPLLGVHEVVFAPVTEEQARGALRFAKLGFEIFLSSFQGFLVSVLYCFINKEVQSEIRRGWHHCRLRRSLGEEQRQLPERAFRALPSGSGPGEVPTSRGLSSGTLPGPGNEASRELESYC

B1: P007 (peptide)
peptide: YXEGTXTSDYXIXLDKQAQAEFVKWLLKGGPSSGAPPPSK
modifications: Aib at 2; αMePhe at 6; Aib at 11; Aib at 13; K at position 24 ε-amino conjugated with ([2-(2-amino-ethoxy)-ethoxy]-acetyl)2-(γ-Glu)1-CO-(CH2)16-CO2H; C-terminal primary amide

Experiments:
[1] = molecular target: T1, human GIP receptor (human); assay: cell-based or functional assay
[2] = molecular target: human GLP-1 receptor (human) (UniProt P43220); assay: cell-based or functional assay
human GLP-1 receptor (human), sequence (P43220 24-463): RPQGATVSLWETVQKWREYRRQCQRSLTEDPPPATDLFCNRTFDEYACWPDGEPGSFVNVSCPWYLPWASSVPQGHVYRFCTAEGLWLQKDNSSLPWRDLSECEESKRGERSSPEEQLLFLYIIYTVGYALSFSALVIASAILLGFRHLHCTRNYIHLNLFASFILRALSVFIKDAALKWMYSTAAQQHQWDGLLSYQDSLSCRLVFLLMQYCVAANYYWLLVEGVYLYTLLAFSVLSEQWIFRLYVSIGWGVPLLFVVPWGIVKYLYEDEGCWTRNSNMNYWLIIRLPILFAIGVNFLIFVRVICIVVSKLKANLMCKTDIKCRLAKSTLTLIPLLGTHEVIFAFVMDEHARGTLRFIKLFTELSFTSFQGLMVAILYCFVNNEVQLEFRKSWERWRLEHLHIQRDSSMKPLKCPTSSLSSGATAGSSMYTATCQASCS

[3] = molecular target: T1, human GIP receptor (human); assay: radioligand competition ([125I]GIP displaced), membranes of cells over-expressing human GIPR; Ki by Cheng-Prusoff
[4] = molecular target: human GLP-1 receptor (human) (UniProt P43220); assay: radioligand competition ([125I]GLP-1 displaced), membranes of cells over-expressing human GLP-1R; Ki by Cheng-Prusoff

Binder | EC50 value (ratio: EC50 of endogenous ligand / EC50 of test compound), LANCE Ultra cAMP assay, HEK293/GIPR cells [1] | EC50 value (ratio: EC50 of endogenous ligand / EC50 of test compound), cAMP reporter gene (luciferase) assay, HEK293/CRE/GLP-1R cells [2] | Ki ratio (Ki of endogenous ligand / Ki of test compound) [3] | Ki ratio (Ki of endogenous ligand / Ki of test compound) [4]
YXEGTXTSDYXIXLDKQAQAEFVKWLLKGGPSSGAPPPSK (X1 is Aib; X2 is αMePhe; X3 is Aib; X4 is Aib; C-terminal primary amide) [P001] | 7.13 | 52.1 | 8.82 | 19.5
B1 | – | 5.84 | – | 0.47
